This series deals with the molecule itself. Nature of the series: cryo-EM structure; helical filaments of purified protein, 60 µM, low-salt SEC buffer, helical reconstruction.

Here are results for 3 proteins from publication PMC11919738, “Mechanism for Vipp1 spiral formation, ring biogenesis, and membrane repair” (Nature Structural & Molecular Biology, 2024).

B1: Vipp1Δα6_(1–219) (Vipp1 with the C-terminal domain truncated) (domain or fragment, Nostoc punctiforme, UniProt B2J6D9 1-219, looked up)
chain: MGLFDRIKRVVSSNLNDLVNKAEDPEKMLEQAILEMQEDLVQLRQGVAQAIAAQKRSEKQYNDAQNEINKWQRNAQLALQKGDENLARQALERKKTYTDTSAALKASLDTQSTQVETLKRNLIQLESKISEAKTKKEMLKARITTAKAQEQLQGMVRGMNTSSAMSAFERMEEKVLMQESRAQALGELAGADLETQFAQLEGGSDVDDELAALKAQMLP
notes: model built for amino acids 1-217; also called Vipp1_(Δα6_L2); Vipp1_(Δα6_L3); source: E. coli C43 (DE3) with pspA gene knockout, purified (amylose resin, TEV, Ni-NTA, SEC); not shown: His6, N-terminal, cleaved; MBP, N-terminal, cleaved
For the protein B1, the binding result was “binds”.

B2: Vipp1 (vesicle-inducing protein in plastids 1) from Nostoc punctiforme (natural protein, UniProt B2J6D9 1-258, looked up)
chain: MGLFDRIKRVVSSNLNDLVNKAEDPEKMLEQAILEMQEDLVQLRQGVAQAIAAQKRSEKQYNDAQNEINKWQRNAQLALQKGDENLARQALERKKTYTDTSAALKASLDTQSTQVETLKRNLIQLESKISEAKTKKEMLKARITTAKAQEQLQGMVRGMNTSSAMSAFERMEEKVLMQESRAQALGELAGADLETQFAQLEGGSDVDDELAALKAQMLPPATPVTQAQLPPQQETTPAKSNEVVDAELDSLRKQLDQL
notes: Vipp1, Nostoc punctiforme, UniProt B2J6D9; model built for amino acids 1-214 in Vipp1L1; Forms polymers (helical filaments, rings, sheets, spirals); the number of subunits is not fixed; RingsHS are the same protein purified with 50 mM NaCl in the SEC buffer; also called IM30; native Vipp1; source: E. coli C43 (DE3) with pspA gene knockout, purified (amylose resin, TEV, Ni-NTA, SEC); not shown: …
As for B2, the binding result was “binds”.

B3: Vipp1-F197K/L200K (Vipp1 interface 3 mutant) (natural protein, Nostoc punctiforme, UniProt B2J6D9 1-258, looked up)
chain: MGLFDRIKRVVSSNLNDLVNKAEDPEKMLEQAILEMQEDLVQLRQGVAQAIAAQKRSEKQYNDAQNEINKWQRNAQLALQKGDENLARQALERKKTYTDTSAALKASLDTQSTQVETLKRNLIQLESKISEAKTKKEMLKARITTAKAQEQLQGMVRGMNTSSAMSAFERMEEKVLMQESRAQALGELAGADLETQKAQKEGGSDVDDELAALKAQMLPPATPVTQAQLPPQQETTPAKSNEVVDAELDSLRKQLDQL
notes: Vipp1, Nostoc punctiforme, UniProt B2J6D9, with F197K and L200K; Co-purified with E. coli membrane (lipid bilayer in the filament lumen); source: E. coli C43 (DE3) with pspA gene knockout, purified (amylose resin, TEV, Ni-NTA, SEC); not shown: His6, N-terminal, cleaved; MBP, N-terminal, cleaved
For the protein B3, the binding result is “binds”.
